From US20200362323

Key:
Assay in all cases: cell_activity
[1] = test system: mouse TRB2-TALEN right (artificial (Xanthomonas TALE-FokI)?); settings: SSA reporter assay in HEK293T, pair with left TALEN; site given as top strand
[2] = test system: mouse TRB2-TALEN left (artificial (Xanthomonas TALE-FokI)?); settings: SSA reporter assay in HEK293T, pair with right TALEN
[3] = test system: mouse TRA2-TALEN right (artificial (Xanthomonas TALE-FokI)?); settings: SSA reporter assay in HEK293T, pair with left TALEN; site given as top strand
[4] = test system: mouse TRB1-TALEN right (artificial (Xanthomonas TALE-FokI)?); settings: SSA reporter assay in HEK293T, pair with left TALEN; site given as top strand
[5] = test system: mouse TRB1-TALEN left (artificial (Xanthomonas TALE-FokI)?); settings: SSA reporter assay in HEK293T, pair with right TALEN
[6] = test system: mouse TRA2-TALEN left (artificial (Xanthomonas TALE-FokI)?); settings: SSA reporter assay in HEK293T, pair with right TALEN

GGAGCTGAGCTGGTGGGTGA (double strand) [mouse TRB2 right target]
activity (fold vs ZFA36) [1]: 3.41

TGTGCTTGGCCAGGGGCTTC (double strand) [mouse TRB2 left target]
activity (fold vs ZFA36) [2]: 3.41

AATGTGCCGAAAACCATGGA (double strand) [mouse TRA2 right target]
activity (fold vs ZFA36) [3]: 3.09

AAAAGCAGAGATTGCAAACA (double strand) [mouse TRB1 right target]
activity (fold vs ZFA36) [4]: 3.79

TGACTCCACCCAAGGTCTCC (double strand) [mouse TRB1 left target]
activity (fold vs ZFA36) [5]: 3.79

TCTGCCTGTTCACCGACT (double strand) [mouse TRA2 left target]
activity (fold vs ZFA36) [6]: 3.09
